# From patent US20110014669A1, “Production of 1,4 Butanediol in a Microorganism” (Microbia, Inc., priority 2009, published 2011)
# B1: SpeFEc: Enzyme candidate for BDO biosynthetic pathway step A5, SEQ ID NO. 63 (protein, listed as Escherichia coli)
# chain: MSKLKIAVSDSCPDCFTTQRECIYINESRNIDVAAIVLSLNDVTCGKLDEIDATGYGIPVFIATENQERVPAEYLPRISGVFENCESRREFYGRQLETAASHYETQLRPPFFRALVDYVNQGNSAFDCPGHQGGEFFRRHPAGNQFVEYFGEALFRADLCNADVAMGDLLIHEGAPCIAQQHAAKVFNADKTYFVLNGTSSSNKVVLNALLTPGDLVLFDRNNHKSNHHGALLQAGATPVYLETARNPYGFIGGIDAHCFEESYLRELIAEVAPQRAKEARPFRLAVIQLGTYDGTIYNARQVVDKIGHLCDYILFDSAWVGYEQFIPMMADCSPLLLDLNENDPGILVTQSVHKQQAGFSQTSQIHKKDSHIKGQQRYVPHKRMNNAFMMHASTSPFYPLFAALNINAKMHEGVSGRNMWMDCVVNGINARKLILDNCQHIRPFVPELVDGKPWQSYETAQIAVDLRFFQFVPGEHWHSFEGYAENQYFVDPCKLLLTTPGIDARNGEYEAFGVPATILANFLRENGVVPEKCDLNSILFLLTPAEDMAKLQQLVALLVRFEKLLESDAPLAEVLPSIYKQHEERYAGYTLRQLCQEMHDLYARHNVKQLQKEMFRKEHFPRVSMNPQEANYAYLRGEVELVRLPDAEGRIAAEGALPYPPGVLCVVPGEIWGGAVLRYFSALEEGINLLPGFAPELQGVYIEEHDGRKQVWCYVIKPRDAQSTLLKGEKL
# B2: GadBEc: Enzyme candidate for BDO biosynthetic pathway step A5, SEQ ID NO. 64 (protein, listed as Escherichia coli)
# chain: MDKKQVTDLRSELLDSRFGAKSISTIAESKRFPLHEMRDDVAFQIINDELYLDGNARQNLATFCQTWDDENVHKLMDLSINKNWIDKEEYPQSAAIDLRCVNMVADLWHAPAPKNGQAVGTNTIGSSEACMLGGMAMKWRWRKRMEAAGKPTDKPNLVCGPVQICWHKFARYWDVELREIPMRPGQLFMDPKRMIEACDENTIGVVPTFGVTYTGNYEFPQPLHDALDKFQADTGIDIDMHIDAASGGFLAPFVAPDIVWDFRLPRVKSISASGHKFGLAPLGCGWVIWRDEEALPQELVFNVDYLGGQIGTFAINFSRPAGQVIAQYYEFLRLGREGYTKVQNASYQVAAYLADEIAKLGPYEFICTGRPDEGIPAVCFKLKDGEDPGYTLYDLSERLRLRGWQVPAFTLGGEATDIVVMRIMCRRGFEMDFAELLLEDYKASLKYLSDHPKLQGIAQQNSFKHT
# B3: MenDEc: Enzyme candidate for BDO biosynthetic pathway step A5, SEQ ID NO. 65 (protein, listed as Escherichia coli)
# chain: MSVSAFNRRWAAVILEALTRHGVRHICIAPGSRSTPLTLAAAENSAFIHHTHFDERGLGHLALGLAKVSKQPVAVIVTSGTAVANLYPALIEAGLTGEKLILLTADRPPELIDCGANQAIRQPGMFASHPTHSISLPRPTQDIPARWLVSTIDHALGTLHAGGVHINCPFAEPLYGEMDDTGLSWQQRLGDWWQDDKPWLREAPRLESEKQRDWFFWRQKRGVVVAGRMSAEEGKKVALWAQTLGWPLIGDVLSQTGQPLPCADLWLGNAKATSELQQAQIVVQLGSSLTGKRLLQWQASCEPEEYWIVDDIEGRLDPAHHRGRRLIANIADWLELHPAEKRQPWCVEIPRLAEQAMQAVIARRDAFGEAQLAHRICDYLPEQGQLFVGNSLVVRLIDALSQLPAGYPVYSNRGASGIDGLLSTAAGVQRASGKPTLAIVGDLSALYDLNALALLRQVSAPLVLIVVNNNGGQIFSLLPTPQSERERFYLMPQNVHFEHAAAMFELKYHRPQNWQELETAFADAWRTPTTTVIEMVVNDTDGAQTLQQLLAQVSHL
# Test system: 5-hydroxy-2-oxopentanoate
# Test: Enzyme assay, decarboxylase (step A5), aldehyde dehydrogenase linked reaction
# Assay type: biochemical
# Parameters: key: +: measureable activity detected in the assay; −: no measurable activity detected in the assay
# Conditions: BDO biosynthetic pathway step A5
# Description: Enzyme expression and crude lysate preparation. The enzymatic activity of each candidate enzyme is evaluated, first in E. coli and subsequently in C. glutamicum. It will be apparent to one of skill in the art that the expression and lysate preparations may need to be modified depending on the host cell and recombinant gene of interest.
# E. coli: E. coli strains transformed with expression clones, for example, pUC18 or MB4124 based clones having a medium strong constitutive promoter regulating the recombinant gene of interest, are grown aerobically in LB medium (Difco) containing the appropriate antibiotic(s). At an OD600 of 0.5, IPTG is added to a final concentration of 0.25 mM. The cultures are grown to a final OD600 of 1.5 at which time the cells are collected and harvested by centrifugation. Cell pellets are resuspended in BugBuster (Novagen) reagent containing benzonase and lysozyme. Alternatively, E. coli strains transformed with expression clones, are grown overnight aerobically at 37° C. in BHI containing the appropriate antibiotic(s). 300 μL of fresh overnight culture is used to inoculate 2.7 mL BHI containing 0.25 mM IPTG and the appropriate antibiotic. The cultures are grown aerobically for 4-5 hours at 37° C. at which time the cells are collected and harvested by centrifugation. Cell pellets are frozen at −80° C. for at least 15 minutes, then thawed and resuspended in BugBuster (Novagen) reagent. Lysis and lysate collection are performed according to the manufacturer's instructions and, for example, may involve use of a sonicator and/or French press. Cleared lysates are stored on ice until enzyme assays are performed.
# C. glutamicum: C. glutamicum strains transformed with MB4124 expression clones containing the recombinant gene of interest are grown aerobically in BHI broth supplemented with the proper antibiotic(s). At an OD600 of 0.5, IPTG is added to a final concentration of 0.25 mM. The cultures are grown to a final OD600 of 1.5 at which time the cells are collected and harvested by centrifugation. The pellet is washed once in one volume of water and resuspended in lysis buffer (1.0 ml 1.0 M HEPES buffer, pH 7.5, 0.5 ml 1M KOH, 10 μl 0.5M EDTA, protease inhibitor cocktail, water to 5 ml; the final pH will vary depending on the individual enzyme being tested) and one volume of 0.1 mm acid washed glass beads. The mixture is repeatedly alternately vortexed and held on ice for 15 seconds, eight times. After centrifugation for 5 min at 4,000 rpm, the supernatant lysate is removed and respun for 20 min at 10,000 rpm. Alternatively, C. glutamicum strains transformed with MB4124 expression clones containing the recombinant gene of interest are grown aerobically overnight in BHI broth supplemented with the proper antibiotic(s). Five mL of fresh overnight culture is used to inoculate 200 mL BHI containing 0.25 mM IPTG and the appropriate antibiotic. The cultures are grown aerobically at 30° C. for 5-7 hours at which time the cells are collected and harvested by centrifugation at 4° C. The pellet is resuspended in 15 mL ice cold 39 mM KH2PO4, 61 mM K2HPO4, 0.5 M KCl and lysed using a BioSpec BeadBeater and following the manufacturer's instructions. The lysate is centrifuged at 16,000 RPM at 4° C. for 30 minutes and the supernatant retained on ice as the extract.
# Protein Assays. Protein concentrations in lysates are determined according to the methods of Bradford et al. (Anal. Biochem. 72:248-254 [1976]) or by the method of Smith et al. (Anal. Biochem. 150(1):76-85 [1985]) and lysates are assayed according to the methods below.
# Enzyme Assays. Enzyme assays are performed on the cell lysates prepared above. The activity for each recombinant enzyme is compared to a lysate from a vector only control culture which is generated in a fashion identical to the recombinant enzyme lysate. […]
row,Molecule,Enzyme Assay
1,B1,−
2,B2,−
3,B3,−
